Reference: US20240327525A1 (VIB VZW, published 2024)

What was measured:
[1] = target: T1, human cation-independent mannose-6-phosphate receptor on cells (human, UniProt P11717 41-2491); assay: live-cell imaging of the uptake of AF488-labelled VHH by MCF7 cells
T1 construct: Endogenous receptor on MCF7 cells (live-cell imaging) and HeLa cells (LYTAC assays); also called cell-surface hCI-M6PR; native hCI-M6PR
Protocol: For live-cell imaging, 2×10⁴ MCF7 cells/well were seeded in OptiMEM medium and incubated the next day with Lyso Tracker Deep Red DND-99 (50 nM, Thermo Fischer, L12492) for 30 minutes at 37° C., 5% CO₂ and washed with OptiMEM after which 7.5 μM AF488 labelled anti-CI-M6PR VHHs (in OptiMEM) were incubated on the cells. For every well (i.e. anti-CI-M6PR VHH), Z-stacks were taken at three different positions every six minutes, for three hours in total. Z-slices (12) were acquired per position at a step size of 1.5 μm and XY pixel size was 275 nm by 275 nm. Excitation and emission wavelengths of the fluorescent compounds used were LTR (λEx: 633 nm and λEm: 665-715 nm), AF488 (λEx: 488 nm and λEm: 520±35 nm), Hoechst/DAPI (λEx: 405 nm and λEm: 420-470 nm).

[2] = target: T2, human CI-M6PR domain1-3His6 (human, UniProt P11717 41-467); assay: BLI, association pH 7.4, dissociation at pH 5.0, mean of local fits
T2 construct: Recombinant, made in HEK293 cells; Biotinylated with NHS-PEG4-biotin for BLI; unlabelled in SEC-MALLS and crystallisation; also called CI-M6PR hDom1-3His6; hDom1-3His6
Protocol: (§1) FIGS. 9A-9E. […] BLI was performed on an Octet Red96 (FortéBio) instrument in kinetics buffer (0.2 M Na₂HPO₄, 0.1 M Na⁺citrate, 0.01% bovine serum albumin, 0.002% Tween-20). Biotinylated human domain₁₋₃His₆ was immobilized on Streptavidin SA biosensors (Sartorius) to a signal of 0.6 nm. […] Between runs, biosensors were regenerated by three times 10 s exposure to regeneration buffer (10 mM glycine pH 3). The degree of association and dissociation was measured in δ nm over time(s).
as §1, with “10A-10E.” for “9A-9E.”, “assays,” for “runs,”

[3] = target: T2, human CI-M6PR domain1-3His6; assay: BLI, association pH 7.4, dissociation at pH 5.5, mean of local fits
Protocol: as §1
as §1, with “10A-10E.” for “9A-9E.”, “assays,” for “runs,”

[4] = target: T2, human CI-M6PR domain1-3His6; assay: BLI, association pH 7.4, dissociation at pH 6.0, mean of local fits
Protocol: as §1
as §1, with “10A-10E.” for “9A-9E.”, “assays,” for “runs,”

[5] = target: T2, human CI-M6PR domain1-3His6; assay: BLI, association pH 7.4, dissociation at pH 6.5, mean of local fits
Protocol: as §1
as §1, with “10A-10E.” for “9A-9E.”, “assays,” for “runs,”

[6] = target: T2, human CI-M6PR domain1-3His6; assay: BLI, biotinylated antigen on SA tips, global 1:1 fit, association at pH 7.4
Protocol: (§2) Biotinylated human domain₁₋₃His₆ was immobilized on Streptavidin SA biosensors (Sartorius) to a signal of 0.6 nm. […] Between runs, biosensors were regenerated by three times 10 s exposure to regeneration buffer (10 mM glycine pH 3). The degree of association and dissociation was measured in δ nm over time(s).
as §1, with “10A-10E.” for “9A-9E.”, “assays,” for “runs,”
(§3) After loading, the tips were incubated with VHHs serially diluted in pH 7.4 kinetic buffer during the association phase and dissociation was performed at pH 7.4, pH 6.5, pH 6.0, pH 5.5 and pH 5.0. All biosensor tips were then regenerated before analysis of the subsequent VHH. Table 3 summarizes the kinetic parameters retrieved after processing and curve fitting of the BLI measurements.

[7] = target: T2, human CI-M6PR domain1-3His6; assay: BLI, biotinylated antigen on SA tips, global 1:1 fit, dissociation at pH 7.4
Protocol: as §2
as §1, with “10A-10E.” for “9A-9E.”, “assays,” for “runs,”
as §3

[8] = target: T1, human cation-independent …; assay: cell-based or functional assay

Row | Binder | binding result [1] | koff [2] | koff [3] | koff [4] | koff [5] | kon [6] | Kd [7] | koff [7] | internalisation rate (live-cell imaging of AF488-VHH on MCF7 cells) [8]
1 | humanized variant VHH8h2 (VHH, Made in E. coli, IMAC purified; tag not specified) VHH: DVQLVESGGGLVQPGGSLRLSCAASGRTFNTYNWGWFRQAPGKEREFVAAIRWSSSKTSYADSVKGRFTISRDNSKNTVYLQMNSLRPEDTAVYYCAASIVDFTTNPSHFGSWGQGTLVTVSS |  | 0.041 s⁻¹ | 0.0044 s⁻¹ | 0.0015 s⁻¹ | 0.0011 s⁻¹ | 220000 M⁻¹ s⁻¹ | 3.07 nM | 0.00067 s⁻¹ | 
2 | humanized variant VHH8h1 (VHH, Made in E. coli, IMAC purified; tag not specified) VHH: EVQLVESGGGLVQPGGSLRLSCAASGRTFNTYNWGWFRQAPGKEREFVAAIRWSSSKTSYADSVKGRFTISRDNSKNTVYLQMNSLRPEDTAVYYCAASIVDFTTNPSHFGSWGQGTLVTVSS |  | 0.029 s⁻¹ | 0.0043 s⁻¹ | 0.0015 s⁻¹ | 0.00053 s⁻¹ | 450000 M⁻¹ s⁻¹ | 1.06 nM | 0.00048 s⁻¹ | 
3 | anti-CI-M6PR VHH1 (VHH) VHH: QVQLQESGGGLVQPGGSLRLSCVASGFTFDRYWMNWLRQIPGKEIEWVSTINTGGTGTYYDDSVKGRFSISRDDAKNTLYLTMNSLKTEDTAVYYCARGATYYRGNSAIRGQGTQVTVSS |  |  |  |  |  |  |  |  | 1.38e+06 summed AF-voxels/minute
4 | humanized variant VHH7h3 (VHH, Made in E. coli, IMAC purified; tag not specified) VHH: DVQLVESGGGLVQPGGSLRLSCAASGIIFSDNRMDWYRQAPGKQREWVATLASYGWKTYADSVKGRFTISRDNTKNTVYLQMNSLRPEDTAVYYCKASSPVLNDIWGQGTLVTVSS |  | 0.019 s⁻¹ | 0.015 s⁻¹ | 0.013 s⁻¹ | 0.011 s⁻¹ | 460000 M⁻¹ s⁻¹ | 14 nM | 0.0064 s⁻¹ | 
5 | humanized variant VHH7h1 (VHH, Made in E. coli, IMAC purified; tag not specified) VHH: EVQLVESGGGLVQPGGSLRLSCAASGIIFSDNRMDWYRQAPGKQREWVATLASYGWKTYADSVKGRFTISRDNSKNTVYLQMNSLRPEDTAVYYCKASSPVLNDIWGQGTLVTVSS |  | 0.02 s⁻¹ | 0.014 s⁻¹ | 0.012 s⁻¹ | 0.0097 s⁻¹ | 500000 M⁻¹ s⁻¹ | 14.1 nM | 0.0071 s⁻¹ | 
6 | humanized variant VHH7h2 (VHH, Made in E. coli, IMAC purified; tag not specified) VHH: DVQLVESGGGLVQPGGSLRLSCAASGIIFSDNRMDWYRQAPGKQREWVATLASYGWKTYADSVKGRFTISRDNSKNTVYLQMNSLRPEDTAVYYCKASSPVLNDIWGQGTLVTVSS |  | 0.019 s⁻¹ | 0.014 s⁻¹ | 0.011 s⁻¹ | 0.0094 s⁻¹ | 470000 M⁻¹ s⁻¹ | 13.6 nM | 0.0064 s⁻¹ | 
7 | anti-CI-M6PR VHH5 (VHH) VHH: QVQLQESGGGLVQAGGSLKLSCAAAGRTFSRLAMGWFRQAPGKEREFVAAISENGDSIHYSDSVKGRFAVSRDNAKNTVYLQMNSLKPEDTAIYYCAADRAAYYCSGSGCYPSRAPAAASYDYWGQGTQVTVSS |  |  |  |  |  |  |  |  | 687000 summed AF-voxels/minute

Now from value to binder:

Row | binding result [1] | koff [2] | koff [3] | koff [4] | koff [5] | kon [6] | Kd [7] | koff [7] | internalisation rate (live-cell imaging of AF488-VHH on MCF7 cells) [8] | Binder
8 | no binding (tested: 7.5 µM) |  |  |  |  |  |  |  |  | anti-CI-M6PR VHH2 (VHH, Alexa Fluor 488 NHS ester label on amines, Tag not specified) VHH: QVQLQESGGGLVQPGGSLRLSCVFSGRTFMSYDVGWFRQAPGKERELLSSITSSSSSPYYAESVKGRFAVSRDGAKKTVYLRMNSLEPEDTAVYYCAARENWRNDWQYWGQTQVTVSS
9 | no binding (tested: 7.5 µM) |  |  |  |  |  |  |  |  | anti-CI-M6PR VHH3 (VHH, Alexa Fluor 488 NHS ester label on amines, Tag not specified) VHH: QVQLQESGGGLVQPGGSLRLSCAAFGLNFKNFDMIWFRQAPGEERDIVAAISSSSSTIWYEDSVKGRFTISRDNAKNTVYLQMNSLKPEDTAVYYCAAALTSWRRPDYWGQGTQVTVSS
10 |  | 0.033 s⁻¹ | 0.0041 s⁻¹ | 0.002 s⁻¹ | 0.0022 s⁻¹ | 290000 M⁻¹ s⁻¹ | 1.76 nM | 0.00051 s⁻¹ |  | humanized variant VHH8h3 (VHH, Made in E. coli, IMAC purified; tag not specified) VHH: DVQLVESGGGLVQAGGSLRLSCAASGRTFNTYNWGWFRQAPGKEREFVAAIRWSSSKTSYADSVKGRFTISRDNSKNTVYLQMNSLRPEDTAVYYCAASIVDFTTNPSHFGSWGQGTLVTVSS
11 | no binding (tested: 7.5 µM) |  |  |  |  |  |  |  |  | anti-CI-M6PR VHH10 (VHH, Alexa Fluor 488 NHS ester label on amines, Tag not specified) VHH: QVQLQESGGGSVQAGGSLRLSCAPAGRTFSRIRMGWFRQAPGKEREFVAAISSGGLSYYADSMKGRFTISRDNAKNTVLLQMNSLEPDDTAVYYCAAVLNDYIDDYVARNPTLYDYWGQGTQVTVSS
12 | no binding (tested: 7.5 µM) |  |  |  |  |  |  |  |  | anti-CI-M6PR VHH6 (VHH, Alexa Fluor 488 NHS ester label on amines, Tag not specified) VHH: QVQLQESGGGLVQAGGSLRLSCAVSGSISSIGGMGWFRQAPGKQREFVAVILNNSGMTSYADSVKGRFTISRGNSKNTMYLQMNSLKPEDTAVYYCNYSGYWGQGTQVTVSS
13 | no binding (tested: 7.5 µM) |  |  |  |  |  |  |  |  | anti-CI-M6PR VHH9 (VHH, Alexa Fluor 488 NHS ester label on amines, Tag not specified) VHH: QVQLQESGGGLVQAGGSLRLSCAASGTILSIKTMGWYRQAPGKEREWVATITSSSIPMYADSVKGRFTISRDDAKNTVYLQMNSLKPEDTGVYYCNAPWTDYWGQGTQVTVSS
14 | no binding (tested: 7.5 µM) |  |  |  |  |  |  |  |  | anti-CI-M6PR VHH4 (VHH, Alexa Fluor 488 NHS ester label on amines, Tag not specified) VHH: QVQLQESGGGLVQAGGSLRLSCAASGRTFSNYVMGWFRQAPGKEREFVGSISQGGKMTYYPDSVKGRFTISRDNAKNTMYLQMDGLKPEDTAVYYCAVSRGYPMVRVSEVDYWGQGTQVTVSS
15 | no binding (tested: 7.5 µM) |  |  |  |  |  |  |  |  | anti-CI-M6PR VHH11 (VHH, Alexa Fluor 488 NHS ester label on amines, Tag not specified) VHH: QVQLQESGGGLVQAGDSLKLSCTASGPTFSEITGGWFRQVPGKEREFVASISSTGITTYYTDSVKGRFTVSRDNAKNTMYLQMNSLKPEDTGVYYCAARSTSRSIAITVGYDYWGQGTQVTVSS
